For data set [1], the target named is T1, Onchocerca volvulus prolyl tRNA synthetase (OvPRS) (Onchocerca volvulus, UniProt A0A2K6VID2).
T1 construct: OvPRS construct of 497 amino acids (279–775; 57 kDa), MBP-His tag removed by TEV
T1 sequence (A0A2K6VID2 279-775): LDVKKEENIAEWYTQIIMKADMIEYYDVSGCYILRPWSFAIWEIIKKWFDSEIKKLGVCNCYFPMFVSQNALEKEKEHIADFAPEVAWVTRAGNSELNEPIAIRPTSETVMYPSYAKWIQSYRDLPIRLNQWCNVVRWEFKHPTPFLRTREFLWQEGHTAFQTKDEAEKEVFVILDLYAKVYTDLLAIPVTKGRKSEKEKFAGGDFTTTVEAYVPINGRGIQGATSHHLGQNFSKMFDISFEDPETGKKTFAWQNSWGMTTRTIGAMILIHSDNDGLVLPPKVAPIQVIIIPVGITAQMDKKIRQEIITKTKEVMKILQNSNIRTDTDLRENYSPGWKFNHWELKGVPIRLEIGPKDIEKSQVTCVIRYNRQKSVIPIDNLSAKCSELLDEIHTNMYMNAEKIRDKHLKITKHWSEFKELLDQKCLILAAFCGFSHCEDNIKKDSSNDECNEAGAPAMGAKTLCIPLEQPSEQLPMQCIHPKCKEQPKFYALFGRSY
The data set is described as follows: malachite green aminoacylation assay with recombinant purified OvPRS ([…] proline, […] ATP, […] enzyme). It counts as biochemical.

Substrate in data set [2]: Nc1ncnc2c1ncn2[C@@H]1O[C@H](COP(=O)(O)OP(=O)(O)OP(=O)(O)O)[C@@H](O)[C@H]1O
The data set is described as follows: purified protein. It counts as biochemical, Onchocerca volvulus.

Substrate in data set [3]: O=C(O)[C@@H]1CCCN1
The data set is described as follows: purified protein. In kind it is biochemical, Onchocerca volvulus.

What is called IC50 is the concentration that gives 50% inhibition. Turning to `O=C(CC1NCCCC1O)Cn1cnc2cc(Br)c(Cl)cc2c1=O` (stereo not drawn) [HF, halofuginone], the IC50 in data set [1] was about 30 nM.

B1: Onchocerca volvulus prolyl tRNA synthetase (OvPRS) (Onchocerca volvulus) (protein)
chain: LDVKKEENIAEWYTQIIMKADMIEYYDVSGCYILRPWSFAIWEIIKKWFDSEIKKLGVCNCYFPMFVSQNALEKEKEHIADFAPEVAWVTRAGNSELNEPIAIRPTSETVMYPSYAKWIQSYRDLPIRLNQWCNVVRWEFKHPTPFLRTREFLWQEGHTAFQTKDEAEKEVFVILDLYAKVYTDLLAIPVTKGRKSEKEKFAGGDFTTTVEAYVPINGRGIQGATSHHLGQNFSKMFDISFEDPETGKKTFAWQNSWGMTTRTIGAMILIHSDNDGLVLPPKVAPIQVIIIPVGITAQMDKKIRQEIITKTKEVMKILQNSNIRTDTDLRENYSPGWKFNHWELKGVPIRLEIGPKDIEKSQVTCVIRYNRQKSVIPIDNLSAKCSELLDEIHTNMYMNAEKIRDKHLKITKHWSEFKELLDQKCLILAAFCGFSHCEDNIKKDSSNDECNEAGAPAMGAKTLCIPLEQPSEQLPMQCIHPKCKEQPKFYALFGRSY
notes: OvPRS construct of 497 amino acids (279–775; 57 kDa), MBP-His tag removed by TEV
The Km is the substrate concentration at which the rate is half of its maximum. On to B1, for which the Km is 18.9 ± 2.2 µM in data set [2] and 24.17 ± 11 µM in data set [3].

(Values after paper PMC6498573, “Genomic analyses of aminoacyl tRNA synthetases from human-infecting helminths” (BMC Genomics, 2019).)
